Measurements as given in patent publication US20250109209A1 (ABSCI, published 2025).
Numbering of substitutions follows the chain as printed. Read-outs that look alike come from different tables or passages of the source. Each block holds one binder with its values, some of them ahead of it.

Columns and labels:
human TL1A [1] = target: T1, human TL1A (human, UniProt O95150 72-251); test: SPR, mAb format, average
T1 construct: Antigen in SPR and ELISA; Also used here for places that print only 'TL1A' and for endogenous TL1A in human whole blood; also called TNFSF15
T1 sequence (looked up): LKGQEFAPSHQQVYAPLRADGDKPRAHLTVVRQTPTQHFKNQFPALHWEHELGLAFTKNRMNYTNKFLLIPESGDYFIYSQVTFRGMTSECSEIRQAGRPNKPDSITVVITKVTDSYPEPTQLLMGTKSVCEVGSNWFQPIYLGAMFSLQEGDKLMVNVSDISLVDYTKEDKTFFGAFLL

human TL1A [2] = target: T1, human TL1A; test: SPR, mAb format, average; remark: listed apart in the source
FcRn = target: T2, FcRn (UniProt P55899 24-297; P61769 21-119); test: SPR, mAb format, FcRn at pH 6.0, average
T2 construct: also called neonatal receptor

mouse TL1A [3] = target: T3, mouse TL1A (mouse, UniProt Q5UBV8 76-252, limits assumed); test: SPR, mAb format, average
T3 sequence (looked up): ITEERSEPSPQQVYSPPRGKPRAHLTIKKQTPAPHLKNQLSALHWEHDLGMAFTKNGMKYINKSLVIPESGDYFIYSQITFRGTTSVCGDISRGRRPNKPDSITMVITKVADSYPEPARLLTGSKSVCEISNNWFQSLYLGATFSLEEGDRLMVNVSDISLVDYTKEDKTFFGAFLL

human TL1A [4] = target: T1, human TL1A; test: SPR, mAb format, average; remark: listed apart in the source
Cyno TL1A = target: T4, Cyno TL1A (cyno, UniProt G7PRK8 72-251); test: SPR, mAb format, average
T4 sequence: T1 sequence (looked up) with F39L, I78V

mouse TL1A [5] = target: T3, mouse TL1A; test: SPR, mAb format

Kd (human TL1A [1]): 0.339 nM
Kd (human TL1A [2]): 0.339 nM
Kd (FcRn): 17.7 nM
Kd (mouse TL1A [3]): 955 nM
Kd (human TL1A [4]): 0.339 nM
Kd (Cyno TL1A): 0.09 nM
B1: Antibody 16 (mAb format) (antibody, human IgG1, kappa, N297A)
heavy: QVQLQESGPGLVRPSQTLSLTCTVSGFDMQSTYMHWVRQRPGRGLEWMGRIEPAGGHTKYNPSLKSRVTITRDTSKNQVSLRLSSVTAADTAVYYCVRSGGLPDVWGQGSLVTVSSASTKGPSVFPLAPSSKSTSGGTAALGCLVKDYFPEPVTVSWNSGALTSGVHTFPAVLQSSGLYSLSSVVTVPSSSLGTQTYICNVNHKPSNTKVDKKVEPKSCDKTHTCPPCPAPELLGGPSVFLFPPKPKDTLMISRTPEVTCVVVDVSHEDPEVKFNWYVDGVEVHNAKTKPREEQYASTYRVVSVLTVLHQDWLNGKEYKCKVSNKALPAPIEKTISKAKGQPREPQVYTLPPSRDELTKNQVSLTCLVKGFYPSDIAVEWESNGQPENNYKTTPPVLDSDGSFFLYSKLTVDKSRWQQGNVFSCSVLHEALHSHYTQKSLSLSPGK
light: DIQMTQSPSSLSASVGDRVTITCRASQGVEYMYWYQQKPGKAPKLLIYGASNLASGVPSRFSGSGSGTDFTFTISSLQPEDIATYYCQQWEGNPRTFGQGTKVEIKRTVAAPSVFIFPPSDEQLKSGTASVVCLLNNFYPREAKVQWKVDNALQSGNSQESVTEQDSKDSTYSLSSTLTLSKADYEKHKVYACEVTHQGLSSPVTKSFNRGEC
notes: also called high priority lead mAb

Kd (human TL1A [1]): 0.179 nM
Kd (human TL1A [2]): 0.179 nM
Kd (FcRn): 19 nM
Kd (mouse TL1A [3]): 1270 nM
Kd (human TL1A [4]): 0.179 nM
Kd (Cyno TL1A): 0.125 nM
B2: Antibody 7 (mAb format) (antibody, human IgG1, kappa, N297A)
heavy: B1 heavy with Q30G, S31D, G55A, V105I
light: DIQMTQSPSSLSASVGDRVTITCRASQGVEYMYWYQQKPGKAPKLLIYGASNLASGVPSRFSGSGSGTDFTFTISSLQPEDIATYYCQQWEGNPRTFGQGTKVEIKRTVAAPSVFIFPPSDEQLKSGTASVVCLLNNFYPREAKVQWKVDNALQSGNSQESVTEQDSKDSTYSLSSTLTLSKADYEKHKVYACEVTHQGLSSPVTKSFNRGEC
notes: as for B1

Kd (human TL1A [1]): 0.091 nM
Kd (human TL1A [2]): 0.091 nM
Kd (FcRn): 17.6 nM
Kd (mouse TL1A [3]): 418 nM
Kd (human TL1A [4]): 0.091 nM
Kd (Cyno TL1A): 0.085 nM
B3: Antibody 8 (mAb format) (antibody, human IgG1, kappa, N297A)
heavy: B1 heavy
light: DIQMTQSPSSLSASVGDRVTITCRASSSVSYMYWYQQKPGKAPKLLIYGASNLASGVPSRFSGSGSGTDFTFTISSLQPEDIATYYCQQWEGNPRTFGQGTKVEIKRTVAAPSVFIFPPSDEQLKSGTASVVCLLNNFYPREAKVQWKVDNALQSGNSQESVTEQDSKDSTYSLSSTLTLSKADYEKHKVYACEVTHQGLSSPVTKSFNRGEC
notes: as for B1

Kd (human TL1A [1]): 0.051 nM
Kd (human TL1A [2]): 0.051 nM
Kd (FcRn): 16.9 nM
Kd (mouse TL1A [3]): 290 nM
Kd (human TL1A [4]): 0.051 nM
Kd (Cyno TL1A): 0.034 nM
B4: Antibody 4 (mAb format) (antibody, human IgG1, kappa, N297A)
heavy: B1 heavy with Q30A, S31D, V105M
light: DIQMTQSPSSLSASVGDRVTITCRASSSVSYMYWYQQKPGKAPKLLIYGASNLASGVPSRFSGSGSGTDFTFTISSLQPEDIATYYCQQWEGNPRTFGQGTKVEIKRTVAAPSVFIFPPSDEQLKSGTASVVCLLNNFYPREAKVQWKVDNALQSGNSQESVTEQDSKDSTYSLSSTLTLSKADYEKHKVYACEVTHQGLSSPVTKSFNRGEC
notes: as for B1

Kd (human TL1A [1]): 0.195 nM
Kd (human TL1A [2]): 0.195 nM
binding result (mouse TL1A [5]): no binding
Kd (FcRn): 17.1 nM
Kd (human TL1A [4]): 0.195 nM
Kd (Cyno TL1A): 0.408 nM
B5: Antibody 2 (mAb format) (antibody, human IgG1, kappa, N297A)
heavy: B1 heavy with F27L, M29P, Q30D, S31D, R98I
light: DIQMTQSPSSLSASVGDRVTITCRASSSVSYMYWYQQKPGKAPKLLIYATSNLASGVPSRFSGSGSGTDFTFTISSLQPEDIATYYCQQWEGNPRTFGQGTKVEIKRTVAAPSVFIFPPSDEQLKSGTASVVCLLNNFYPREAKVQWKVDNALQSGNSQESVTEQDSKDSTYSLSSTLTLSKADYEKHKVYACEVTHQGLSSPVTKSFNRGEC
notes: as for B1

Kd (human TL1A [1]): 0.296 nM
Kd (human TL1A [2]): 0.296 nM
Kd (FcRn): 19.8 nM
Kd (mouse TL1A [3]): 3810 nM
Kd (human TL1A [4]): 0.296 nM
Kd (Cyno TL1A): 0.224 nM
B6: Antibody 14 (mAb format) (antibody, human IgG1, kappa, N297A)
heavy: B1 heavy with F27L, M29P, Q30D, S31D, R98I
light: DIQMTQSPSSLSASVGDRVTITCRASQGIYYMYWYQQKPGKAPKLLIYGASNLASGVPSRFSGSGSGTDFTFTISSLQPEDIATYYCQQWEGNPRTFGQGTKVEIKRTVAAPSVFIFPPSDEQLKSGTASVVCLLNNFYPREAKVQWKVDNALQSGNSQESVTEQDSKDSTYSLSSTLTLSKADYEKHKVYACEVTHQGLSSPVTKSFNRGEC
notes: as for B1

Kd (human TL1A [1]): 0.151 nM
Kd (human TL1A [2]): 0.151 nM
Kd (FcRn): 17.5 nM
Kd (mouse TL1A [3]): 74500 nM
Kd (human TL1A [4]): 0.151 nM
Kd (Cyno TL1A): 0.139 nM
B7: Antibody 1 (mAb format) (antibody, human IgG1, kappa, N297A)
heavy: B1 heavy with M29I, S31D, V97A, R98S, L102M, V105L
light: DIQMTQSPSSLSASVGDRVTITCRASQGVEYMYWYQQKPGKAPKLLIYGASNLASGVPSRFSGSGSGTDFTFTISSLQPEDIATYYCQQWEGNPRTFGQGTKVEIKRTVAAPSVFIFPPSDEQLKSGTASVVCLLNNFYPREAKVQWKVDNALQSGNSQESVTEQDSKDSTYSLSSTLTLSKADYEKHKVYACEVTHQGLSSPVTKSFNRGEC
notes: also called Lead #1; high priority lead mAb

Kd (human TL1A [1]): 0.38 nM
Kd (human TL1A [2]): 0.38 nM
Kd (FcRn): 16.5 nM
Kd (mouse TL1A [3]): 691 nM
Kd (human TL1A [4]): 0.38 nM
Kd (Cyno TL1A): 0.123 nM
B8: Antibody 19 (mAb format) (antibody, human IgG1, kappa, N297A)
heavy: B1 heavy with M29I, Q30T, S31D
light: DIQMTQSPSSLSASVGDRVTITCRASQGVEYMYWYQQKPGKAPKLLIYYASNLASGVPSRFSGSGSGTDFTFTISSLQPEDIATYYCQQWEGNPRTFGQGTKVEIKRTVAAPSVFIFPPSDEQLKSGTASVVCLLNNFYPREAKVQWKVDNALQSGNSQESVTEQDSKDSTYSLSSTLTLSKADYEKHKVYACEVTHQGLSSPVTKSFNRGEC
notes: as for B1

Kd (human TL1A [1]): 0.17 nM
Kd (human TL1A [2]): 0.17 nM
Kd (FcRn): 19.7 nM
Kd (mouse TL1A [3]): 13100 nM
Kd (human TL1A [4]): 0.17 nM
Kd (Cyno TL1A): 0.118 nM
B9: Antibody 12 (mAb format) (antibody, human IgG1, kappa, N297A)
heavy: B1 heavy with M29I, Q30T, S31D
light: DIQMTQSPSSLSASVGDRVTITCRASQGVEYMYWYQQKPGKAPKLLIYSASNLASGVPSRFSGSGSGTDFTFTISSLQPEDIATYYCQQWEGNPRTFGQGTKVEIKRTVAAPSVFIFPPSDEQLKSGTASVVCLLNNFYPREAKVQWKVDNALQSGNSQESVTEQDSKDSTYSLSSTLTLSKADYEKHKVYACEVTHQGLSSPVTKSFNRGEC
notes: as for B1

Kd (human TL1A [1]): 0.482 nM
Kd (human TL1A [2]): 0.482 nM
binding result (mouse TL1A [5]): no binding
Kd (FcRn): 22.1 nM
Kd (human TL1A [4]): 0.482 nM
Kd (Cyno TL1A): 0.253 nM
B10: Antibody 10 (mAb format) (antibody, human IgG1, kappa, N297A)
heavy: B1 heavy with F27L, M29P, Q30D, S31D, R98I
light: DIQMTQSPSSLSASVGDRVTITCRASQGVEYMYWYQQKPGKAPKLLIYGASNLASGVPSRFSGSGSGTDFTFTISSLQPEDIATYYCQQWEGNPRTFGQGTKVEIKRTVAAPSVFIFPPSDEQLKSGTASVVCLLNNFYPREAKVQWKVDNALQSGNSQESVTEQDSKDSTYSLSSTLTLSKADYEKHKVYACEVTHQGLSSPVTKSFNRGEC
notes: as for B1

Kd (human TL1A [1]): 0.067 nM
Kd (human TL1A [2]): 0.067 nM
Kd (FcRn): 17.4 nM
Kd (mouse TL1A [3]): 162 nM
Kd (human TL1A [4]): 0.067 nM
Kd (Cyno TL1A): 0.046 nM
B11: Antibody 15 (mAb format) (antibody, human IgG1, kappa, N297A)
heavy: B1 heavy with M29I, S31D, V105A
light: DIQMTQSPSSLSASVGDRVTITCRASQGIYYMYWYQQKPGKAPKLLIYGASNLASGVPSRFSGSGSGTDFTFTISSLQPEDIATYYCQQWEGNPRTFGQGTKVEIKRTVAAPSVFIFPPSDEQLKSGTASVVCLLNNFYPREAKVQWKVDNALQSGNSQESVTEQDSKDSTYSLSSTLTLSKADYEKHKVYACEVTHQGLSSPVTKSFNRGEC
notes: as for B1
